Source: the RNAGym collection of RNA variant scans (doi:10.7554/elife.80360)

B1: HDV Ribozyme (parent)
chain: GGCCGGCAUGGUCCCAGCCUCCUCGCUGGCGCCGGCUGGGCAACAUUCCGAGGGGACCGUCCCCUCGGUAAUGGCGAAUGGGACCCA

Variants of: B1
Assay: self-cleavage, relative activity (ratio to wild type); higher = more cleavage; co-transcriptional

Variant | self-cleavage
C4U G52U | 0.831
C4U G52A | 0.443
G5C G73A | 0.0554
G5C G73C | 0.0639
G5A C15A | 0.162
C4U U27C | 0.166
G5A G52U | 0.237
G5C C15U | 0.356
G5C C15A | 0.262
C4U G54C | 0.795
G5A G17U | 0.123
C4U C62G | 0.151
C4U C62U | 0.656
G5A C62U | 0.16
G5A C62A | 0
G5C C85G | 0.0755
G5C C85A | 0.199
C4U C57U | 0.656
C4U C57G | 0.629
G5C G39A | 0
G5C G39C | 0.0462
G5C G39U | 0.0346
G5A C84U | 0.117
G5A C84A | 0.172

Variant | self-cleavage
G5C A70G | 0.158
G5C A70U | 0
G5C A70C | 0.158
G5A C24U | 0
G5C C75U | 0
G5C C75G | 0.123
G5A G34U | 0.0282
G5A G82A | 0.0554
G5A G82U | 0.0354
C4U G17U | 0.136
C4U G17A | 0.332
G5A G50C | 0.225
G5C A87G | 0.124
G5A C75U | 0.0346
G5A C75A | 0.113
G5A C75G | 0
G5A G38C | 0.208
G5C G82U | 0.0594
G5C G80A | 0.256
G5A G35A | 0.0692
G5A G35C | 0.119
C4U G68U | 0.657
G5C U12C | 0
G5A G53C | 0.302

Variant | self-cleavage
G5A G53A | 0.248
G5C C26A | 0.508
G5A C13G | 0
G5A C13U | 0.107
G5C C48A | 0.0875
G5C C30A | 0
G5C C30G | 0.0875
G5C C33U | 0.386
G5C C22G | 0
G5C C22U | 0.151
C4U U79A | 0.755
G5C C44U | 0.0504
C4U C61A | 0.978
C4U C61U | 0.717
G5A G81C | 0.0791
G5A G28U | 0
C4U G5U | 0.237
C4U G5A | 0.185
G5A C32G | 0.248
G5A C32A | 0
G5A C32U | 0.198
G5A U37G | 0.0504
G5A C44G | 0.0369
G5A U69A | 0.0519

Variant | self-cleavage
G5A U69C | 0.208
G5A C58U | 0.252
G5A C58A | 0.253
G5A C58G | 0.119
G5C C18A | 0.0639
G5C C18G | 0.262
G5A C36U | 0.18
G5A C36A | 0.0627
G5A G68U | 0.146
G5C C24U | 0.252
G5C C24G | 0
G5A G67C | 0.162
G5C G34U | 0.0426
G5C G34A | 0.0692
G5C G34C | 0
G5C G17C | 0.151
G5C G67A | 0.353
G5C G67U | 0.248
G5C G67C | 0.252
G5A C7A | 0
G5A C7U | 0.0978
C4U G50A | 0.686
C4U G50C | 0.917
G5C A83G | 0.0519

Variant | self-cleavage
G5C A83C | 0
C4U C41U | 0.567
G5C A71G | 0.0923
G5C A71C | 0.0639
G5C A71U | 0.18
G5A C66U | 0.305
G5A C66G | 0.244
C4U C86G | 0.831
C4U C86A | 0.875
G5A C61A | 0.0573
G5A C61U | 0.0326
G5A C61G | 0.166
G5A U12G | 0.145
G5A U12A | 0
G5A U12C | 0.0615
G5C C62G | 0.145
C4U U65G | 0.656
C4U U65C | 1.06
C4U U65A | 0.727
G5C G11U | 0.115
C4U G53A | 0.665
C4U G53C | 0.782
C4U G34C | 0.151
C4U G34U | 0.424

Variant | self-cleavage
G5A C14U | 0.119
G5A A78U | 0.101
C4U C75G | 0.122
G5A U60C | 0.353
G5A A42U | 0.111
G5A A42G | 0
G5A A42C | 0.135
G5C U23C | 0.208
G5C U23G | 0.0615
G5C U23A | 0
C4U G35U | 0.162
G5C G52U | 0.23
G5C A45G | 0.0875
G5C A45U | 0.131
G5C C7G | 0
G5C C7A | 0.119
G5C C7U | 0.0462
G5A G55C | 0.104
C4U C63G | 0.396
C4U C63U | 0.682
G5C C14G | 0.111
G5A G6C | 0.0536
G5A G6U | 0.0923
G5C U27C | 0

Variant | self-cleavage
G5C U27A | 0.227
G5A U46C | 0.185
G5A U46A | 0
C4U C49A | 0.332
C4U C49U | 0.789
C4U C49G | 0.604
G5C G38C | 0.108
G5C G38A | 0.199
G5C C58G | 0.378
G5C C13U | 0.133
G5C C13A | 0.0755
G5A G29C | 0.0755
G5A G29U | 0.0519
G5A G29A | 0.155
G5C G40A | 0.208
G5C G40C | 0.256
G5A A56C | 0.107
G5A C19A | 0.0723
G5A C19U | 0
G5A C86U | 0.396
G5A C86A | 0.132
G5C G68A | 0.208
G5C G68C | 0
G5C C41U | 0.277

Variant | self-cleavage
G5C C41G | 0
G5A G54C | 0.225
G5A G54U | 0.113
C4U U69A | 0.623
G5C A42U | 0
G5C A42C | 0.115
C4U G6U | 0.219
G5A C85G | 0.147
G5A U9G | 0.111
G5C A43G | 0
G5C A43C | 0
C4U G76A | 0.443
G5C C36A | 0.0489
G5C C36G | 0.0978
C4U G11A | 0.225
C4U G11C | 0
C4U U23A | 0.727
C4U U23G | 0.302
G5A A77G | 0
G5C C49U | 0.0755
G5C C49A | 0.178
G5C C57A | 0.111
G5C C57G | 0.35
C4U G67U | 0.855

Variant | self-cleavage
C4U G67C | 0.739
C4U G67A | 0.554
G5A G73U | 0.108
G5A G73C | 0.268
G5A G73A | 0
G5C G35C | 0.147
C4U C58G | 0.615
C4U G73C | 0.242
C4U G73U | 0.138
C4U G55C | 0.656
C4U G55A | 0.772
C4U G55U | 0.639
C4U U72A | 0.415
C4U U72C | 0.554
G5A C64G | 0.237
G5A C64A | 0.198
G5A C64U | 0.359
G5A C48U | 0.0405
G5C G29C | 0.0615
G5A G80C | 0.0563
G5C G53U | 0.291
G5A C30U | 0.0692
G5C G10A | 0.208
G5A A8U | 0.151

Variant | self-cleavage
G5A A8G | 0.0692
G5A A8C | 0.0519
G5A U23C | 0.0573
G5A U23A | 0.342
G5C C21U | 0.0554
G5C C21G | 0.125
G5C C64U | 0.332
C4U U20C | 0.0437
C4U U20G | 0
C4U U20A | 0.0554
C4U C48A | 0.706
C4U C48G | 0.554
C4U G74C | 0.0791
C4U G74A | 0.197
C4U G40A | 0.604
C4U G40C | 0.128
G5C A51U | 0.298
G5C A51C | 0.293
C4U G29U | 0.0302
C4U G82U | 0.119
C4U G82A | 0.0959
C4U G82C | 0.0875
G5A C18A | 0.0875
G5C C19A | 0

Variant | self-cleavage
G5C C19U | 0.0536
G5C C19G | 0
C4U G31A | 0.163
C4U G31C | 0.0339
C4U G31U | 0.0346
G5A A16U | 0.356
G5A A16C | 0.166
G5C A77G | 0.0475
G5C A77C | 0
G5A A71G | 0
G5A A71C | 0.0426
G5C C66A | 0.172
G5C C66U | 0.106
G5A G31C | 0.095
G5A U27C | 0.0594
G5A U27A | 0.504
G5A U27G | 0.217
G5A A70C | 0.166
G5A A70G | 0.0504
G5A G39C | 0.119
G5A A87U | 0.218
C4U C33G | 0
C4U C33U | 0.612
C4U G10C | 0.63

Variant | self-cleavage
C4U U9A | 0.739
C4U U9C | 0.727
C4U U9G | 0.782
G5C G55A | 0.175
G5C G55U | 0.17
G5A C33U | 0.831
G5A C33A | 0.219
G5C C86A | 0.166
G5C A78G | 0
G5C A78C | 0.0615
G5C G6C | 0.151
G5C G6A | 0
C4U C85U | 0.665
C4U C85G | 0.935
C4U U47G | 0.88
C4U U47C | 0.554
G5C C84G | 0.332
G5A A45U | 0
G5A A45C | 0.0462
G5A A43U | 0.089
G5A A43G | 0.131
G5A A43C | 0.0594
G5A G40U | 0.119
C4U G25A | 0.111

Variant | self-cleavage
G5C G25A | 0.0639
G5C G25C | 0
G5C C32A | 0.0615
G5A A83G | 0.297
C4U U60C | 0.872
G5A U79A | 0.192
C4U G80U | 0.0683
C4U G80C | 0.157
G5A C41G | 0
G5A C41A | 0.0615
G5A U72A | 0.101
G5A U72G | 0.147
G5A U72C | 0.142
G5C G76C | 0.199
G5C G76U | 0.378
C4U U37G | 0
C4U C36G | 0.0707
C4U C36A | 0
C4U C36U | 0.272
G5C U20G | 0
G5C U20A | 0
G5C G28U | 0
G5C G28A | 0.104
G5C G28C | 0.208

Variant | self-cleavage
C4U C44G | 0.214
G5A G76U | 0.148
G5A G76C | 0.0959
C4U C64G | 0.538
G5A C57U | 0.106
G5A C57A | 0.0449
G5A C57G | 0.138
C4U G28U | 0.0277
C4U G28A | 0.0845
G5C G50C | 0.151
G5C C61A | 0.432
G5A G74A | 0.0326
G5A G74U | 0.0326
C4U U12G | 0.465
G5A C26A | 0.522
G5A C26G | 0.427
G5A U47C | 0.0615
G5C G59C | 0.0791
G5A U65A | 0.259
G5A U65G | 0
G5A U20C | 0
C4U U46C | 0.403
